Test results published in patent publication US20050148504A1, “Cysteine protease inhibitor” (priority 2002, published 2005).

Legend:
papain [1] = molecular target: T1, papain (Carica papaya, UniProt P00784); test: cysteine protease inhibitory activity, Z-Phe-Arg-MCA fluorescence method (Barrett et al.), papain; type: biochemical; design: purchased Sigma Co., Ltd
T1 sequence (P00784 134-345): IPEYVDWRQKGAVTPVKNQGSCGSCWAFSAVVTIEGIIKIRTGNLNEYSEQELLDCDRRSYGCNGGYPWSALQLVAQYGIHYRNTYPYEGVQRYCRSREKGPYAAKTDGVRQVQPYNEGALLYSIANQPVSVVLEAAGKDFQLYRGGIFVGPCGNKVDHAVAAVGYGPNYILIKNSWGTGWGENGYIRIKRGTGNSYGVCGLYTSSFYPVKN
Method: Casein, a partial peptide of casein, or hydrolysate of casein which can be used for the present invention has inhibitory activity against cysteine proteases such as cathepsin B, L and papain. The cysteine protease inhibitory activity can be determined in accordance with the methods of Barrett et al (Methods in Enzymology, Vol. 80, pp. 535-561, 1981). For example, Z-Phe-Arg-MCA (Benzyloxycarbonyl-L-Phenylalanyl-L-Arginine4-Methyl-Coumaryl-7-Amide: final concentration of […]: manufactured by Peptide Institute, Inc.) is added as a substrate into a solution in which casein, a partial peptide and/or a hydrolysate of casein is dissolved in 0.1 M acetic acid buffer (pH 5.5), and then a cysteine protease (papain in the present Examples: manufactured by Sigma Co., Ltd.) solution (final concentration: 15 units/ml) is added and the whole solution is mixed to allow reaction at 37° C. for 10 minutes. After that, fluorescence intensity (excitation wavelength: 370 nm, emission wavelength: 460 nm) of AMC (7-Amino-4-Methyl-Coumarin) released from the digested substrate is measured with a fluorescence spectrometer (manufactured by Hitachi, Ltd.).
(§1) The inhibitory activity was measured with reference to the method by Barrett et al. (“Methods in Enzymology,” Vol. 80, p 535-561, 1981) as described below. Namely, Z-Phe-Arg-MCA (final concentration of […]: manufactured by Peptide Institute, Inc.) was added as a substrate to a solution containing bovine β-casein peptide mixture dissolved in a 0.1 M acetic acid buffer solution pH 5.5. Then, a cysteine protease (papain in the present test: manufactured by Sigma Co., Ltd.) solution (final concentration: 15 units/ml) was added, the whole solution was mixed and the reaction was carried out at 37° C. for 10 minutes. Subsequently, fluorescence intensity (excitation wavelength: 370 nm, emission wavelength: 460 nm) of AMC released from the digested substrate was measured with a fluorescence spectrometer (manufactured by Hitachi, Ltd.).
Z-Phe-Arg-MCA (final concentration of […]: manufactured by Peptide Institute, Inc.) was added as a substrate into a solution in which a test sample was dissolved in a 0.1 M acetic acid buffer (pH 5.5). Then, a papain solution (final concentration of 15 units/ml) as a cysteine protease solution was added and mixed, and the reaction was performed at 37° C. for 10 minutes. Subsequently, fluorescence intensity (excitation wavelength: 370 nm, emission wavelength: 460 nm) of AMC released from the digested substrate was measured with a fluorescence spectrometer (manufactured by Hitachi, Ltd.).

papain [2] = molecular target: papain (UniProt P00784); test: cell-based or functional assay
cathepsin L = cathepsin L (Homo sapiens, UniProt P07711); test: cysteine protease inhibitory activity, Z-Phe-Arg-MCA fluorescence method, cathepsin L; type: biochemical; conditions: concentration of 10^−4 M
Chain of cathepsin L (P07711 114-333, species assumed): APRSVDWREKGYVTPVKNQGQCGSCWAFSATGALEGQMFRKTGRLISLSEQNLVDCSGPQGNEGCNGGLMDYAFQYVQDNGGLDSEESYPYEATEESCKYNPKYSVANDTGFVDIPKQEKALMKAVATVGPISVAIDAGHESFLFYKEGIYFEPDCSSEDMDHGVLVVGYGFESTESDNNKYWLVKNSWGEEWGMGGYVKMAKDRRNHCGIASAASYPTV
Method: as §1
(§2) A spectrum of cysteine protease-inhibitory activity of a test sample was measured in the same way as that of measuring the cysteine protease-inhibitory activity described in the Test Example 3, using bovine β-casein as a test sample, and papain, cathepsin B and cathepsin L as cysteine proteases.

papain [3] = molecular target: T1, papain; test: reverse zymography using papain (SDS-polyacrylamide gel containing gelatin); conditions: 12.5% SDS-polyacrylamide gel with 0.1% gelatin; papain 37° C. 10 hours; FIG. 1 lane 6
cathepsin B = cathepsin B (Homo sapiens, UniProt P07858); test: cysteine protease inhibitory activity, Z-Phe-Arg-MCA fluorescence method, cathepsin B; type: biochemical; conditions: concentration of 10^−4 M
Method: as §1, §2

## bovine β-casein peptide: peptide from Leu of 142th residue to His of 160th residue of bovine β-casein (SEQ ID No. 2) (LTDVENLHLPLPLLQSWMH; sig_peptide (1)Oc(15) casein; listed as Bos taurus)
Papain [1]; papain 15 units/ml, pH 5.5, 37° C. 10 minutes, concentration not given
  cysteine protease inhibitory activity (papain), in words: having inhibitory activity

## bovine α-casein
Papain [2]
  concentration at which papain activity is almost inhibited: 100 µM

## bovine κ-casein (from UniProt P02668 22-190)
Papain [2]
  concentration at which papain is completely inhibited: 10 µM

## human β-casein peptide: synthesized peptide having amino acid numbers 133 to 151 of SEQ ID No. 1 (human β-casein) (LTDLENLHLPLPLLQPLMQ; sig_peptide (1)Oc(15) casein; listed as Homo Sapiens)
Papain [1]; concentration of 10^−4 M
  inhibition of papain, in words: completely inhibits
Papain [1]; concentration of 10^−5 M
  inhibition of protease activity of papain: 65%

## bovine κ-casein: bovine κ-casein used as a test sample
Papain [1]; concentration of 10^−5 M
  inhibition of papain, in words: completely inhibit

B1: bovine β-casein: β-casein derived from bovine, amino acid sequence of SEQ ID No. 2 (Swiss-Prot P02666) (protein, listed as Bos taurus)
chain: MKVLILACLVALALARELEELNVPGEIVESLSSSEESITRINKKIEKFQSEEQQQTEDELQDKIHPFAQTQSLVYPFPGPIPNSLPQNIPPLTQTPVVVPPFLQPEVMGVSKVKEAMAPKHKEMPFPKYPVEPFTESQSLTLTDVENLHLPLPLLQSWMHQPHQPLPPTVMFPPQSVLSLSQSKVLPVPQKAVPYPQRDMPIQAFLLYQEPVLGPVRGPFPIIV
modifications: sig_peptide (1)Oc(15) casein
Papain [1]; concentration of 10^−5 M
  inhibition of papain, in words: completely inhibits
Papain [1]; concentration of 10^−5 M, listed as β-casein
  inhibition of papain, in words: completely inhibit
Cathepsin L
  inhibition of protease activity of cathepsin L, in words: almost inhibits
Papain [3]
  band in reverse zymography using papain: positive band
Cathepsin B
  inhibition of protease activity of cathepsin B, in words: almost inhibits

B2: human β-casein: human β-casein purified by a conventional procedure, amino acid sequence of SEQ ID No. 1 (Swiss-Prot P05814) (protein, listed as Homo Sapiens)
chain: MKVLILACLVALALARETIESLSSSEESITEYKQKVEKVKHEDQQQGEDEHQDKIYPSFQPQPLIYPFVEPIPYGFLPQNILPLAQPAVVLPVPQPEIMEVPKAKDTVYTKGRVMPVLKSPTIPFFDPQIPKLTDLENLHLPLPLLQPLMQQVPQPIPQTLALPPQPLWSVPQPKVLPIPQQVVPYPQRAVPVQALLLNQELLLNPTHQIYPVTQPLAPVHNPISV
modifications: sig_peptide (1)Oc(15) casein
Papain [1]; concentration of 10^−5 M
  inhibition of papain, in words: almost completely inhibits
